From PMC5321760 come the findings set out here.

What is called stoichiometry N is a count of units in the complex or per binding partner.

Assay [1] concerns the target αIIbβ3 integrin (immobilized) (UniProt P08514). The assay is described as follows: ELISA; solid-phase binding: αVβ3 or αIIbβ3 coated on microtiter wells (250 ng per well), blocked with BSA; recalcified plasma treated with PDI-CCCC, PDI-AAAA, ERp57-CCCC or BSA and 0.3 mM DTT for 10 min at 37 °C, stopped with 20 mM NEM, diluted 1:100, 1 h; bound vitronectin detected with rabbit anti-vitronectin and anti-rabbit IgG-HRP. For orientation: An ELISA detects its analyte on a solid surface through an enzyme-linked reagent.

For assay [2], the target named is αVβ3 integrin (immobilized) (UniProt P06756). The description is as above.
UniProt P06756, sequence (P06756 31-1048, chain 1 of 2): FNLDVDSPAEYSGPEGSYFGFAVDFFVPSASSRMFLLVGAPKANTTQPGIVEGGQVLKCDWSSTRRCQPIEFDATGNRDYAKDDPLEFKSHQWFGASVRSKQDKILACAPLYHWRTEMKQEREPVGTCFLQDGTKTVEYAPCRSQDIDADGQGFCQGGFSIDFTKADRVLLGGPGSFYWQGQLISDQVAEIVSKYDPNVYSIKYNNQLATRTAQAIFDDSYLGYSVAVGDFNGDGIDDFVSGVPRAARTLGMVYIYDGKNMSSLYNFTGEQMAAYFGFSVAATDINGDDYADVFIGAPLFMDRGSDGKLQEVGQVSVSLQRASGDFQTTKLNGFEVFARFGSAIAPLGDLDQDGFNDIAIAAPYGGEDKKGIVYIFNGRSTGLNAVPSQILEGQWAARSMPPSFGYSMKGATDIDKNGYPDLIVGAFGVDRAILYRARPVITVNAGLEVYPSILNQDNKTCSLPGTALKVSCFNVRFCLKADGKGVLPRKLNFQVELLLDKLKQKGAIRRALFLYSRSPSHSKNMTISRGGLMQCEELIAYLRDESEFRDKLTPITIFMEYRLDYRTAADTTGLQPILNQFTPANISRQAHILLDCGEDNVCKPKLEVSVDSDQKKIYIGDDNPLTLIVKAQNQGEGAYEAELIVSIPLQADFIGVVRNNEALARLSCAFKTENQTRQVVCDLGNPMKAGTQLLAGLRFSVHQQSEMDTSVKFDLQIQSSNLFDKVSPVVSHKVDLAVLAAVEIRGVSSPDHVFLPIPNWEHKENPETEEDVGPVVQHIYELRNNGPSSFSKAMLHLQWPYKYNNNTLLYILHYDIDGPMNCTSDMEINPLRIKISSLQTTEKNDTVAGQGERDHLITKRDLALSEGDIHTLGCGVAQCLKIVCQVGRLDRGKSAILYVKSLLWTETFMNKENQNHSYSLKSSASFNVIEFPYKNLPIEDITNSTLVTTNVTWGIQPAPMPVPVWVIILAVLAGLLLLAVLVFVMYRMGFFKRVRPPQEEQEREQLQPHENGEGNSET
UniProt P06756, sequence (P05106 27-718, chain 2 of 2, further chain): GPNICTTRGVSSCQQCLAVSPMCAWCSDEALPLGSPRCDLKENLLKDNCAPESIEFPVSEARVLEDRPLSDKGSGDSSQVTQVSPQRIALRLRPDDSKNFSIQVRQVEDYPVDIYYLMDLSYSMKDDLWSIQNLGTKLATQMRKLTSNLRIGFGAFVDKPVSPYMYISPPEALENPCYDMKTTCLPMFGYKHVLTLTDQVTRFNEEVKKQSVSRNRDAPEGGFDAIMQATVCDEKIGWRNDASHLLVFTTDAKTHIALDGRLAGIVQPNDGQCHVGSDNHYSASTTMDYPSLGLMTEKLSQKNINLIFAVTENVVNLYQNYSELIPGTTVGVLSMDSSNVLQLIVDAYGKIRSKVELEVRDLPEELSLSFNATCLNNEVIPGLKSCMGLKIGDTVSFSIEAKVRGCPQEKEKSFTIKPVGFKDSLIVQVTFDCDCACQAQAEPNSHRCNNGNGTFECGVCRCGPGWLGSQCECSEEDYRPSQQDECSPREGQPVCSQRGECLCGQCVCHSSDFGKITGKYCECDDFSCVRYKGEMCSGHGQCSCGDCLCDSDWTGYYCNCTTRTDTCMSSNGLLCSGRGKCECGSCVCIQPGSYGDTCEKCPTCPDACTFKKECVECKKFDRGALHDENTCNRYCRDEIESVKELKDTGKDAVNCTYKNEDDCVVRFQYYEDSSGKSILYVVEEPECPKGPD
Assay [3] deals with plasma vitronectin (human (endogenous in plasma; the donor is not stated, anti-human vitronectin antibodies were used)).
The next assay has as its target PDI–CACA (human) (UniProt P07237). The assay is described as follows: pull-down; kinetic trapping: DTT-reduced FLAG-/SBP-tagged PDI or ERp57 variant (500 ug) added to 5 ml recalcified platelet-rich plasma with GPRP, collagen and thrombin, 3 min at 23°, stopped with hirudin and 20 mM NEM; streptavidin-agarose, washes with 500 mM NaCl and 1.5% Triton X-100, eluted with biotin; non-reducing and reducing 1D or 2D SDS-PAGE, Western blot for FLAG and vitronectin; the complex is a mixed disulfide. Background: Immunoblotting shows a protein as a band on a membrane.

“PDI-reduced plasma vitronectin (natural protein)”: the fold increase in bound vitronectin at the highest PDI concentration in assay [1] is over 3 fold. Further, the fold increase in bound vitronectin at the highest PDI concentration (15 μM) in assay [2] stood at 4 fold.
As for “PDI–CCCC (wild type protein disulfide isomerase) (from UniProt P07237 18-508) (enzyme)”, the PEG5000-maleimide incorporated into plasma vitronectin after reduction by the enzyme in NEM-pretreated platelet-poor plasma (0 to 5 min at 1 uM; 0.25 to 2.5 uM for 5 min), gel shift on Western blot (moles per mole of vitronectin) in assay [3] was 3.6.
plasma vitronectin (natural protein): the stoichiometry N with PDI–CACA (human) amounted to 1.
